Laboratory results published in article PMC4041088.

Target: FLAG-tagged murine lipin 1b (murine) (UniProt Q91ZP3)
Experiment: atomic force microscopy

FLAG-tagged murine lipin 1b (from UniProt Q91ZP3 1-924) (enzyme)
stoichiometry N: 12
